Data as given in PMC2745220 (Cell, 2008).

T1: ParB, purified (C. crescentus, UniProt P0CAV8 1-304)
T1 sequence (looked up): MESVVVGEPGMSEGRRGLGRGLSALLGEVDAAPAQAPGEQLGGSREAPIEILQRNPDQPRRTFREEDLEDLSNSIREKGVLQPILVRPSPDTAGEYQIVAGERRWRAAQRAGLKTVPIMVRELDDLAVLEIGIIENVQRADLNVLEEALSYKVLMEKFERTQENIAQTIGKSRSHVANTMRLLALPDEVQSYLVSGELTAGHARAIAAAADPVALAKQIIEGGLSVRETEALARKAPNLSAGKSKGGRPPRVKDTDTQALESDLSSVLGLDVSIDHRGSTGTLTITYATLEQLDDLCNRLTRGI


Experiments:
ParB, purified = target: T1, ParB, purified; assay: SPR
native gel or EMSA = target: the molecule itself; assay: native gel or EMSA
SEC = target: the molecule itself; assay: SEC

Row | Kd (ParB, purified) [nM] | Binder | binding result (native gel or EMSA) | binding result (SEC)
1 | 20 | PopZ (Polar Organizing Protein Z), purified, 6-His tag cleaved (natural protein, C. crescentus, UniProt Q9A8N4 1-177, looked up) MSDQSQEPTMEEILASIRRIISEDDAPAEPAAEAAPPPPPEPEPEPVSFDDEVLELTDPIAPEPELPPLETVGDIDVYSPPEPESEPAYTPPPAAPVFDRDEVAEQLVGVSAASAAASAFGSLSSALLMPKDGRTLEDVVRELLRPLLKEWLDQNLPRIVETKVEEEVQRISRGRGA | binds | –
2 | – | 6His-PopZ (His-tagged PopZ) (natural protein, C. crescentus, UniProt Q9A8N4 1-177, looked up) MSDQSQEPTMEEILASIRRIISEDDAPAEPAAEAAPPPPPEPEPEPVSFDDEVLELTDPIAPEPELPPLETVGDIDVYSPPEPESEPAYTPPPAAPVFDRDEVAEQLVGVSAASAAASAFGSLSSALLMPKDGRTLEDVVRELLRPLLKEWLDQNLPRIVETKVEEEVQRISRGRGA | – | binds
